Ends that are not written are not given here. * marks the point of attachment. FITC = O=C1OC2(c3ccc(O)cc3Oc3cc(O)ccc32)c2ccc(NC(=S)*)cc21
Experiments:
Assay in all cases: fluorescence polarisation; fluorescein-labelled pol β NLS peptide against the concentration of the Impα construct; apparent dissociation constants; as in ref. 56
Details in all cases: both partners purified
[1] = molecular target: T1, murine Importin α1 with the Importin β binding domain deleted (mImpα1ΔIBB) (mouse, UniProt P52293 70-529)
[2] = molecular target: T2, full-length murine Importin α1 (mImpα1) (mouse, UniProt P52293 1-529)
[3] = molecular target: human Importin α5, residues 66–512 (hImpα5ΔIBB) (human, UniProt P52294 66-512)
Chain of human Importin α5, residues 66–512 (hImpα5ΔIBB) (P52294 66-512, stated change not applied): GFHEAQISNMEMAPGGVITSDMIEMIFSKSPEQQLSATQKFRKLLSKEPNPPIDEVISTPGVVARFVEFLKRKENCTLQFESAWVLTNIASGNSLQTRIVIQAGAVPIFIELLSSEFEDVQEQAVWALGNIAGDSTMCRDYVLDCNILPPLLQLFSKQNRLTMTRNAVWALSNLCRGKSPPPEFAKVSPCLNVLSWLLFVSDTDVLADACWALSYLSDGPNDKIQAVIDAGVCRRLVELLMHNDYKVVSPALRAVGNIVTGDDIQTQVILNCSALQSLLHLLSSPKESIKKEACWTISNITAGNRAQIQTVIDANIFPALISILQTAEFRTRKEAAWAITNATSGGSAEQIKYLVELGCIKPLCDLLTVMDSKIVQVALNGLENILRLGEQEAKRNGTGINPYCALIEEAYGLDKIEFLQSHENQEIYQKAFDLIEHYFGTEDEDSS

[4] = molecular target: T1, murine Importin α1 with the Importin β …; remark: listed apart in the source
[5] = molecular target: T2, full-length murine Importin α1 (mImpα1); remark: listed apart in the source

Kd [1]: 2 µM | Kd [2]: 54.3 µM | Kd [3]: 0.72 ± 0.03 µM | Kd [4]: 3.6 ± 0.4 µM | Kd [5]: 61.8 ± 1.7 µM
Binder: SKRKAPQETLNGGK(FITC) [fluorescein-labeled pol β NLS peptide SKRKAPQETLNGG-Lys(FITC)]

From article PMC5389473 (Nucleic Acids Research, 2016)
